What was measured:
[1] = target: T1, hASIC1a-ECD (Homo sapiens, UniProt P78348); assay: Gel filtration of hASIC1a-ECD and ASC06-Fab complex; format: binding; conditions: Superdex 200
T1 construct: The ectodomain of hASIC1a (hASIC1a-ECD) with an N-terminal fused IL-2 tag and Flag tag; IL-2 tag (N); made in house; host or cells: HEK293F
T1 sequence (P78348 67-427 limits assumed): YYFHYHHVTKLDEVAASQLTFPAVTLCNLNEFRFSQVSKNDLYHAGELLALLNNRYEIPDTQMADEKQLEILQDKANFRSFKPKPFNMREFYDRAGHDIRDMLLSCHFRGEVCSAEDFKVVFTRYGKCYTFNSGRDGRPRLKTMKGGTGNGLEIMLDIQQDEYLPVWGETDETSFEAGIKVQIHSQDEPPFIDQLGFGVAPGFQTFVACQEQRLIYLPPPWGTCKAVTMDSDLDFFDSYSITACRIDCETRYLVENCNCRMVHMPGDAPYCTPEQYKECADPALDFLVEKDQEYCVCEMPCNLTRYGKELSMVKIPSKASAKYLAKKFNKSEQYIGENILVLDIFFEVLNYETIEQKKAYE
Experimental: (§1) Negative Stain Electron Microscopy (EM): (1) Sample Preparation and Data Collection. The antigen-binding fragment of ASC06-IgG1 (ASC06-Fab) was prepared by digesting ASC06-IgG1 with papain followed by protein A affinity purification and gel filtration. The ectodomain of hASIC1a (hASIC1a-ECD) with an N-terminal fused IL-2 tag and Flag tag was expressed in HEK293F cells and purified by anti-Flag M2 magnetic beads and gel filtration using PBS buffer, pH 7.4. The ASC06-Fab and hASIC1a-ECD were incubated at a molar ratio of 3:1 in PBS buffer, pH 7.4, overnight at 4° C. to form a tertiary complex. This complex was further isolated by gel filtration. […] The peak fractions containing this complex were collected and subjected to negative staining EM.
To understand the nature of binding of ASC06 to hASIC1a, a complex was formed by mixing hASIC1a-ECD and ASC06-Fab. The complex, hASIC1a-ECD and ASC06-Fab were resolved using gel filtration.

[2] = target: T1, hASIC1a-ECD; assay: Negative stain electron microscopy of hASIC1a-ECD/ASC06-Fab complex; conditions: negative staining EM
Experimental: as §1
The EM samples were prepared by diluting the purified complex of hASIC1a-ECD and ASC06-Fab to 0.01 mg/mL. […]
All micrographs were recorded with a Tecnai G2 Spirit transmission electron microscope (FEI) equipped with an LaB6 cathode operated at 120 kV and a 4,000×4,000 Eagle CCD camera at a calibrated magnification of 67,000 times, resulting in a pixel size of 1.74 Å.
EMI mage Processing and 3D Reconstruction. […] All of the recorded micrographs were first decimated twofold (resulting in a pixel size of 3.48 Å). […]

B1: ASC06-Fab: antigen-binding fragment of ASC06-IgG1 prepared by digesting ASC06-IgG1 with papain (antibody, V domains shown)
VH: QVQLQQSGGGLVQPGGSLRLSCAASGFTFSSYAMSWVRQAPGKGLEWVSAISGSGGSTYYADSVKGRFTISRDNSKNTLYLQMNSLRAEDTAVYYCAKDSFYGYSKGDWGQGTLVTVSS
VL: QSALTQPASVSGSPGQSITISCTGTSSDVGAYNYVSWYQQQPGKAPKLMIYGVSNRPSGVSNRFSGSKSGNAASLTISGLQAEDEADYYCSSYTSSSTYVFGTGTKLTVLG
- complex formation with hASIC1a-ECD homotrimer [1]: formed a stable complexes
- location of epitope [2]: located on a surface formed by two hASIC1a-ECD subunits

Reference: patent US12692310B2, “ASIC1 channel antagonist antibody” (ShanghaiTech University, priority 2019, dated 2026)
